Target: Bcl-xL∆L∆CT (C-terminal and loop-truncated Bcl-xL)
Test: SAXS; purified OM-induced Bcl-xL dimer, 1 mg/ml and 3 mg/ml, 15 °C; mass from forward scattering against lysozyme

stoichiometry N: 2
Substance: Bcl-xL∆L∆CT (C-terminal and loop-truncated Bcl-xL) (domain or fragment)
